In patent US20230212244A1 (IMMATICS BIOTECHNOLOGIES, published 2023) one finds peptide exchange yield data, which are given here for 61 molecules.

In the assay the target is T1, HLA-A*02:01 (human).
T1 construct: MHC class I monomer made peptide-receptive by UV cleavage of a UV-sensitive ligand; also called peptide-receptive MHC molecules
As to the kind of experiment: UV-ligand exchange ELISA (anti-β2m), peptide exchange yield grade. An excerpt: Candidate peptides for T cell based therapies according to the present invention were further tested for their MHC binding capacity (affinity). The individual peptide-MHC complexes were produced by UV-ligand exchange, where a UV-sensitive peptide is cleaved upon UV-irradiation, and exchanged with the peptide of interest as analyzed. Only peptide candidates that can effectively bind and stabilize the peptide-receptive MHC molecules prevent dissociation of the MHC complexes. To determine the yield of the exchange reaction, an ELISA was performed based on the detection of the light chain (β2m) of stabilized MHC complexes. The assay was performed as generally described in Rodenko et al. (Rodenko et al., 2006).
96 well MAXISorp plates (NUNC) were coated over night with 2ug/ml streptavidin in PBS at room temperature, washed 4× and blocked for1h at 37° C. in 2% BSA containing blocking buffer. Refolded HLA-A*02:01/MLA-001 monomers served as standards, covering the range of 15-500 ng/ml. Peptide-MHC monomers of the UV-exchange reaction were diluted 100 fold in blocking buffer. Samples were incubated for 1h at 37° C., washed four times, incubated with 2 ug/ml HRP conjugated anti-β2m for 1h at 37° C., washed again and detected with TMB solution that is stopped with […]. Absorption was measured at 450 nm. Candidate peptides that show a high exchange yield (preferably higher than 50%, most preferred higher than 75 %) are generally preferred for a generation and production of antibodies or fragments thereof, and/or T cell receptors or fragments thereof, as they show sufficient avidity to the MHC molecules and prevent dissociation of the MHC complexes.
(An ELISA detects its analyte on a solid surface through an enzyme-linked reagent.)

B1: peptide … (SEQ ID NO: 148) (peptide)
peptide: RLLENMTEVV
Consider B1, for which the peptide exchange yield is 50 to 75%.

B2: peptide SLVQRVETI (SEQ ID NO: 142) (peptide)
peptide: SLVQRVETI
notes: also called ECT2-001
Regarding B2, the peptide exchange yield was 50 to 75%.

B3: peptide VLYEGVDEV (SEQ ID NO: 120) (peptide)
peptide: VLYEGVDEV
As to B3, the peptide exchange yield is 20 to 50%.

B4: peptide ALSDETWGL (SEQ ID NO: 146) (peptide)
peptide: ALSDETWGL
In turn, B4 displayed a peptide exchange yield of 20 to 50%.

B5: peptide TLAKYLMEL (SEQ ID NO: 126) (peptide)
peptide: TLAKYLMEL
With B5, the peptide exchange yield fell in the range of 50 to 75%.

B6: peptide TLQPVDNSTISL (SEQ ID NO: 117) (peptide)
peptide: TLQPVDNSTISL
Molecule B6 had a peptide exchange yield of 20 to 50%.

B7: peptide LLLEWKQV (SEQ ID NO: 145) (peptide)
peptide: LLLEVVKQV
notes: also called LLLEVVKQV
The molecule B7 showed a peptide exchange yield of 50 to 75%.

B8: peptide KLFDIFSQQV (SEQ ID NO: 136) (peptide)
peptide: KLFDIFSQQV
Regarding B8, the peptide exchange yield was 50 to 75%.

B9: peptide MLDDRAYLV (SEQ ID NO: 128) (peptide)
peptide: MLDDRAYLV
B9 gave a peptide exchange yield of 20 to 50%.

B10: peptide KLGQVLIYL (SEQ ID NO: 112) (peptide)
peptide: KLGQVLIYL
On to B10, for which the peptide exchange yield fell in the range of 20 to 50%.

B11: peptide ILYQTVTGL (SEQ ID NO: 119) (peptide)
peptide: ILYQTVTGL
Molecule B11 registered a peptide exchange yield of 20 to 50%.

B12: peptide AVIEHLERL (SEQ ID NO: 141) (peptide)
peptide: AVIEHLERL
In the case of B12, the peptide exchange yield was ≥ 75%.

B13: peptide KQFEGTVEI (SEQ ID NO: 138) (peptide)
peptide: KQFEGTVEI
The molecule B13 gave a peptide exchange yield of 50 to 75%.

B14: peptide SAQGSDVSLTACKV (SEQ ID NO: 151) (peptide)
peptide: SAQGSDVSLTACKV
Molecule B14 came in with a peptide exchange yield of 50 to 75%.

B15: peptide RTFEKIEEV (SEQ ID NO: 133) (peptide)
peptide: RTFEKIEEV
Turning to B15, the peptide exchange yield was 20 to 50%.

B16: peptide ALVQGILERV (SEQ ID NO: 12) (peptide)
peptide: ALVQGILERV
Consider B16, for which the peptide exchange yield lay in the range of 50 to 75%.

B17: peptide TLTELRAFL (SEQ ID NO: 147) (peptide)
peptide: TLTELRAFL
As to B17, the peptide exchange yield is ≥ 75%.

B18: peptide KLSDVWKEL (SEQ ID NO: 143) (peptide)
peptide: KLSDVWKEL
With B18, the peptide exchange yield fell in the range of 50 to 75%.

B19: peptide SLAELVPGVGGI (SEQ ID NO: 108) (peptide)
peptide: SLAELVPGVGGI
B19 returned a peptide exchange yield of 50 to 75%.

B20: peptide … (SEQ ID NO: 155) (peptide)
peptide: RLLGEEVVRV
notes: also called RLLGEEVVRV
B20 came in with a peptide exchange yield of 50 to 75%.

B21: peptide SLMGMVLKL (SEQ ID NO: 122) (peptide)
peptide: SLMGMVLKL
B21 registered a peptide exchange yield of 50 to 75%.

B22: peptide GVAGGSILKGV (SEQ ID NO: 134) (peptide)
peptide: GVAGGSILKGV
In the case of B22, the peptide exchange yield was ≥ 75%.

B23: peptide VLLNEILEQV (SEQ ID NO: 139) (peptide)
peptide: VLLNEILEQV
Molecule B23 had a peptide exchange yield of 50 to 75%.

B24: peptide ALIKQLFEA (SEQ ID NO: 1) (peptide)
peptide: ALIKQLFEA
notes: also called ZNF-002
As for B24, the peptide exchange yield was in the range of 50 to 75%.

B25: peptide RVLPPSALQSV (SEQ ID NO: 124) (peptide)
peptide: RVLPPSALQSV
B25: the peptide exchange yield lay in the range of 50 to 75%.

B26: peptide YQFDKVGILTL (SEQ ID NO: 149) (peptide)
peptide: YQFDKVGILTL
As to B26, the peptide exchange yield is 50 to 75%.

B27: peptide YALDLSTFL (SEQ ID NO: 105) (peptide)
peptide: YALDLSTFL
B27 yielded a peptide exchange yield of 50 to 75%.

B28: peptide KLPSETIFVGC (SEQ ID NO: 154) (peptide)
peptide: KLPSETIFVGC
Consider B28, for which the peptide exchange yield was 50 to 75%.

B29: peptide VLIDVLKEL (SEQ ID NO: 129) (peptide)
peptide: VLIDVLKEL
Molecule B29 gave a peptide exchange yield of 50 to 75%.

B30: peptide GLLDPSVFHV (SEQ ID NO: 158) (peptide)
peptide: GLLDPSVFHV
In turn, B30 gave a peptide exchange yield of 50 to 75%.

B31: peptide QLTEIKPLL (SEQ ID NO: 137) (peptide)
peptide: QLTEIKPLL
As to B31, the peptide exchange yield lay within 50 to 75%.

B32: peptide ILFSEDSTKLFV (SEQ ID NO: 153) (peptide)
peptide: ILFSEDSTKLFV
B32: the peptide exchange yield lay within 50 to 75%.

B33: peptide LLGELPRLLLL (SEQ ID NO: 110) (peptide)
peptide: LLGELPRLLLL
Consider B33, for which the peptide exchange yield was 50 to 75%.

B34: peptide SLMMTIINL (SEQ ID NO: 156) (peptide)
peptide: SLMMTIINL
Turning to B34, the peptide exchange yield is ≥ 75%.

B35: peptide KLLAVIHEL (SEQ ID NO: 152) (peptide)
peptide: KLLAVIHEL
notes: also called RAD54B-002
Turning to B35, the peptide exchange yield was 20 to 50%.

B36: peptide GLGGSQLIDTHL (SEQ ID NO: 130) (peptide)
peptide: GLGGSQLIDTHL
B36: the peptide exchange yield is 20 to 50%.

B37: peptide ALLGGGPYML (SEQ ID NO: 107) (peptide)
peptide: ALLGGGPYML
Molecule B37 displayed a peptide exchange yield of 50 to 75%.

B38: peptide LLNDRIWLA (SEQ ID NO: 144) (peptide)
peptide: LLNDRIWLA
The molecule B38 showed a peptide exchange yield of 50 to 75%.

B39: peptide ALDGDQMEL (SEQ ID NO: 109) (peptide)
peptide: ALDGDQMEL
Regarding B39, the peptide exchange yield is 20 to 50%.

B40: peptide LQLDKEFQL (SEQ ID NO: 15) (peptide)
peptide: LQLDKEFQL
The molecule B40 displayed a peptide exchange yield of 50 to 75%.

B41: peptide FLLAEDTKV (SEQ ID NO: 13) (peptide)
peptide: FLLAEDTKV
Regarding B41, the peptide exchange yield was 50 to 75%.

B42: peptide SLISEKILL (SEQ ID NO: 106) (peptide)
peptide: SLISEKILL
Take B42: the peptide exchange yield fell in the range of 50 to 75%.

B43: peptide FLDKPEDVLL (SEQ ID NO: 14) (peptide)
peptide: FLDKPEDVLL
Molecule B43 had a peptide exchange yield of 20 to 50%.

B44: peptide ILLTIKDDTIYL (SEQ ID NO: 104) (peptide)
peptide: ILLTIKDDTIYL
Consider B44, for which the peptide exchange yield was 50 to 75%.

B45: peptide RMYNKIFAI (SEQ ID NO: 10) (peptide)
peptide: RMYNKIFAI
Molecule B45 showed a peptide exchange yield of 50 to 75%.

B46: peptide LLNEILEQV (SEQ ID NO: 140) (peptide)
peptide: LLNEILEQV
On to B46, for which the peptide exchange yield was 50 to 75%.

B47: peptide KTLERSYLL (SEQ ID NO: 123) (peptide)
peptide: KTLERSYLL
As to B47, the peptide exchange yield lay in the range of 20 to 50%.

B48: peptide TAVGHALVL (SEQ ID NO: 114) (peptide)
peptide: TAVGHALVL
B48: the peptide exchange yield was in the range of 10 to 20%.

B49: peptide KLGDFGLLVEL (SEQ ID NO: 125) (peptide)
peptide: KLGDFGLLVEL
Regarding B49, the peptide exchange yield is ≥ 75%.

B50: peptide LVYQFVHPI (SEQ ID NO: 116) (peptide)
peptide: LVYQFVHPI
On to B50, for which the peptide exchange yield lay within 20 to 50%.

B51: peptide KLLDWHPA (SEQ ID NO: 131) (peptide)
peptide: KLLDVVHPA
In turn, B51 registered a peptide exchange yield of 20 to 50%.

B52: peptide SLIERDLKL (SEQ ID NO: 157) (peptide)
peptide: SLIERDLKL
The molecule B52 returned a peptide exchange yield of 50 to 75%.

B53: peptide KLQEEIPVL (SEQ ID NO: 135) (peptide)
peptide: KLQEEIPVL
B53 showed a peptide exchange yield of 20 to 50%.

B54: peptide RLADLEALKV (SEQ ID NO: 150) (peptide)
peptide: RLADLEALKV
Molecule B54 displayed a peptide exchange yield of 50 to 75%.

B55: peptide ALLNAILHSA (SEQ ID NO: 132) (peptide)
peptide: ALLNAILHSA
Take B55: the peptide exchange yield was 50 to 75%.

B56: peptide SLAPNIISQL (SEQ ID NO: 121) (peptide)
peptide: SLAPNIISQL
Molecule B56 gave a peptide exchange yield of 50 to 75%.

B57: peptide ILYDLQQNL (SEQ ID NO: 113) (peptide)
peptide: ILYDLQQNL
In turn, B57 returned a peptide exchange yield of 20 to 50%.

B58: peptide RLAELTVDEFLA (SEQ ID NO: 127) (peptide)
peptide: RLAELTVDEFLA
As for B58, the peptide exchange yield is 50 to 75%.

B59: peptide SLFDVSHML (SEQ ID NO: 115) (peptide)
peptide: SLFDVSHML
As for B59, the peptide exchange yield lay in the range of 50 to 75%.

B60: peptide YLFEKTFNM (SEQ ID NO: 11) (peptide)
peptide: YLFEKTFNM
B60: the peptide exchange yield lay in the range of 50 to 75%.

B61: peptide LLADLKTMV (SEQ ID NO: 118) (peptide)
peptide: LLADLKTMV
The molecule B61 gave a peptide exchange yield of 50 to 75%.
